One block for each substance: values may come before it.
Tests used:
Assay in all cases: crystal structure
[1] = molecular target: recombinant C-terminal StrepII-tagged SbtB from Synechocystis sp. PCC 6803 (ScSbtB), wild type (Synechocystis sp. PCC 6803)
[2] = molecular target: recombinant C-terminal StrepII-tagged ScSbtB variant C105A+C110A (Synechocystis sp. PCC 6803)
[3] = molecular target: recombinant C-terminal StrepII-tagged ScSbtB variant Δ104 (R-loop truncated from position 104 on) (Synechocystis sp. PCC 6803)

stoichiometry N [1]: 3
Substance: recombinant C-terminal StrepII-tagged SbtB from Synechocystis sp. PCC 6803 (ScSbtB), wild type (natural protein)

stoichiometry N [2]: 3
Substance: recombinant C-terminal StrepII-tagged ScSbtB variant C105A+C110A (natural protein)

stoichiometry N [3]: 3
Substance: recombinant C-terminal StrepII-tagged ScSbtB variant Δ104 (R-loop truncated from position 104 on) (domain or fragment)
